Reference: patent US20040219159, “Methods and compositions for therapeutic intervention in infectious disease” (published 2004)

Target: T1, HspR (Rv0353) (Mycobacterium tuberculosis, UniProt O06302 O06302:1-126)
T1 sequence: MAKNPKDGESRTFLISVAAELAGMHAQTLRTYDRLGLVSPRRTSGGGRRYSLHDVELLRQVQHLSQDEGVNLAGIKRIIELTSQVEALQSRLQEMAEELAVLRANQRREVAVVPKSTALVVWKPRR
Test: EMSA
Conditions: tags: His-tag (pQE30, expressed in E. coli SG13009, renatured from urea); label: 32P; annealed 40-mers with short 5' overhangs

B1: HAIR2 oligonucleotide DNAKIR-F/DNAKIR-R (dsDNA)
DNA 1: GCTCAGTAAGTTGAGTGCATCAGGCTCAGCTCTGAATTGA
DNA 2: GTCAATTCAGAGCTGAGCCTGATGCACTCAACTTACTGAG
Q: Does B1 bind?
A: binds
